Consider 6 molecules from patent US20200079833A1 (AstraZeneca / MedImmune, published 2020).

Starred links: 1 amine or outer side, 2 acyl side, 3 side chain; linkers in the order of their positions; H or OH if unused. Non-standard residues stand in square brackets, D forms with d. Groups on a side chain read outwards from the residue. No end group written: not given here. *: point of attachment. γGlu = O=C(O)[C@H](CCC(=O)[*:2])N[*:1]; Palmitoyl = CCCCCCCCCCCCCCCC(=O)*; αMeF = C[C@](N)(Cc1ccccc1)C(=O)O; αMeK = C[C@](N)(CCCCN)C(=O)O; αMeS = C[C@](N)(CO)C(=O)O; Aib = CC(C)(N)C(=O)O

First the molecules themselves.
B1: SEQ ID NO 83 (peptide)
peptide: H[Aib]EGS[αMeF]TSDV[αMeS]S[αMeF]LEGK([γGlu-Palmitoyl])AA[αMeK]E[αMeF]IA[αMeF]VV[αMeK]GG-NH2
modifications: N-terminus assumed
SMILES: CCCCCCCCCCCCCCCC(=O)N[C@@H](CCC(=O)NCCCC[C@H](NC(=O)CNC(=O)[C@H](CCC(=O)O)NC(=O)[C@H](CC(C)C)NC(=O)[C@](C)(Cc1ccccc1)NC(=O)[C@H](CO)NC(=O)[C@](C)(CO)NC(=O)[C@@H](NC(=O)[C@H](CC(=O)O)NC(=O)[C@H](CO)NC(=O)[C@@H](NC(=O)[C@](C)(Cc1ccccc1)NC(=O)[C@H](CO)NC(=O)CNC(=O)[C@H](CCC(=O)O)NC(=O)C(C)(C)NC(=O)[C@@H](N)Cc1c[nH]cn1)[C@@H](C)O)C(C)C)C(=O)N[C@@H](C)C(=O)N[C@@H](C)C(=O)N[C@@](C)(CCCCN)C(=O)N[C@@H](CCC(=O)O)C(=O)N[C@@](C)(Cc1ccccc1)C(=O)N[C@H](C(=O)N[C@@H](C)C(=O)N[C@@](C)(Cc1ccccc1)C(=O)N[C@H](C(=O)N[C@H](C(=O)N[C@@](C)(CCCCN)C(=O)NCC(=O)NCC(N)=O)C(C)C)C(C)C)[C@@H](C)CC)C(=O)O
B2: SEQ ID NO 81 (peptide)
peptide: H[Aib]EGS[αMeF]TSDV[αMeS]S[αMeF]LEGEAK([γGlu-Palmitoyl])[αMeK]E[αMeF]IA[αMeF]VV[αMeK]GG-NH2
modifications: N-terminus assumed
SMILES: CCCCCCCCCCCCCCCC(=O)N[C@@H](CCC(=O)NCCCC[C@H](NC(=O)[C@H](C)NC(=O)[C@H](CCC(=O)O)NC(=O)CNC(=O)[C@H](CCC(=O)O)NC(=O)[C@H](CC(C)C)NC(=O)[C@](C)(Cc1ccccc1)NC(=O)[C@H](CO)NC(=O)[C@](C)(CO)NC(=O)[C@@H](NC(=O)[C@H](CC(=O)O)NC(=O)[C@H](CO)NC(=O)[C@@H](NC(=O)[C@](C)(Cc1ccccc1)NC(=O)[C@H](CO)NC(=O)CNC(=O)[C@H](CCC(=O)O)NC(=O)C(C)(C)NC(=O)[C@@H](N)Cc1c[nH]cn1)[C@@H](C)O)C(C)C)C(=O)N[C@@](C)(CCCCN)C(=O)N[C@@H](CCC(=O)O)C(=O)N[C@@](C)(Cc1ccccc1)C(=O)N[C@H](C(=O)N[C@@H](C)C(=O)N[C@@](C)(Cc1ccccc1)C(=O)N[C@H](C(=O)N[C@H](C(=O)N[C@@](C)(CCCCN)C(=O)NCC(=O)NCC(N)=O)C(C)C)C(C)C)[C@@H](C)CC)C(=O)O
B3: SEQ ID NO 85 (peptide)
peptide: H[Aib]EGS[αMeF]TSDV[αMeS]S[αMeF]LK([γGlu-Palmitoyl])GEAA[αMeK]E[αMeF]IA[αMeF]VV[αMeK]GG-NH2
modifications: N-terminus assumed
SMILES: CCCCCCCCCCCCCCCC(=O)N[C@@H](CCC(=O)NCCCC[C@H](NC(=O)[C@H](CC(C)C)NC(=O)[C@](C)(Cc1ccccc1)NC(=O)[C@H](CO)NC(=O)[C@](C)(CO)NC(=O)[C@@H](NC(=O)[C@H](CC(=O)O)NC(=O)[C@H](CO)NC(=O)[C@@H](NC(=O)[C@](C)(Cc1ccccc1)NC(=O)[C@H](CO)NC(=O)CNC(=O)[C@H](CCC(=O)O)NC(=O)C(C)(C)NC(=O)[C@@H](N)Cc1c[nH]cn1)[C@@H](C)O)C(C)C)C(=O)NCC(=O)N[C@@H](CCC(=O)O)C(=O)N[C@@H](C)C(=O)N[C@@H](C)C(=O)N[C@@](C)(CCCCN)C(=O)N[C@@H](CCC(=O)O)C(=O)N[C@@](C)(Cc1ccccc1)C(=O)N[C@H](C(=O)N[C@@H](C)C(=O)N[C@@](C)(Cc1ccccc1)C(=O)N[C@H](C(=O)N[C@H](C(=O)N[C@@](C)(CCCCN)C(=O)NCC(=O)NCC(N)=O)C(C)C)C(C)C)[C@@H](C)CC)C(=O)O
B4: SEQ ID NO 86 (peptide)
peptide: H[Aib]EGS[αMeF]TSDV[αMeS]S[αMeF]K([γGlu-Palmitoyl])EGEAA[αMeK]E[αMeF]IA[αMeF]VV[αMeK]GG-NH2
modifications: N-terminus assumed
SMILES: CCCCCCCCCCCCCCCC(=O)N[C@@H](CCC(=O)NCCCC[C@H](NC(=O)[C@](C)(Cc1ccccc1)NC(=O)[C@H](CO)NC(=O)[C@](C)(CO)NC(=O)[C@@H](NC(=O)[C@H](CC(=O)O)NC(=O)[C@H](CO)NC(=O)[C@@H](NC(=O)[C@](C)(Cc1ccccc1)NC(=O)[C@H](CO)NC(=O)CNC(=O)[C@H](CCC(=O)O)NC(=O)C(C)(C)NC(=O)[C@@H](N)Cc1c[nH]cn1)[C@@H](C)O)C(C)C)C(=O)N[C@@H](CCC(=O)O)C(=O)NCC(=O)N[C@@H](CCC(=O)O)C(=O)N[C@@H](C)C(=O)N[C@@H](C)C(=O)N[C@@](C)(CCCCN)C(=O)N[C@@H](CCC(=O)O)C(=O)N[C@@](C)(Cc1ccccc1)C(=O)N[C@H](C(=O)N[C@@H](C)C(=O)N[C@@](C)(Cc1ccccc1)C(=O)N[C@H](C(=O)N[C@H](C(=O)N[C@@](C)(CCCCN)C(=O)NCC(=O)NCC(N)=O)C(C)C)C(C)C)[C@@H](C)CC)C(=O)O
B5: SEQ ID NO 84 (peptide)
peptide: H[Aib]EGS[αMeF]TSDV[αMeS]S[αMeF]LEK([γGlu-Palmitoyl])EAA[αMeK]E[αMeF]IA[αMeF]VV[αMeK]GG-NH2
modifications: N-terminus assumed
SMILES: CCCCCCCCCCCCCCCC(=O)N[C@@H](CCC(=O)NCCCC[C@H](NC(=O)[C@H](CCC(=O)O)NC(=O)[C@H](CC(C)C)NC(=O)[C@](C)(Cc1ccccc1)NC(=O)[C@H](CO)NC(=O)[C@](C)(CO)NC(=O)[C@@H](NC(=O)[C@H](CC(=O)O)NC(=O)[C@H](CO)NC(=O)[C@@H](NC(=O)[C@](C)(Cc1ccccc1)NC(=O)[C@H](CO)NC(=O)CNC(=O)[C@H](CCC(=O)O)NC(=O)C(C)(C)NC(=O)[C@@H](N)Cc1c[nH]cn1)[C@@H](C)O)C(C)C)C(=O)N[C@@H](CCC(=O)O)C(=O)N[C@@H](C)C(=O)N[C@@H](C)C(=O)N[C@@](C)(CCCCN)C(=O)N[C@@H](CCC(=O)O)C(=O)N[C@@](C)(Cc1ccccc1)C(=O)N[C@H](C(=O)N[C@@H](C)C(=O)N[C@@](C)(Cc1ccccc1)C(=O)N[C@H](C(=O)N[C@H](C(=O)N[C@@](C)(CCCCN)C(=O)NCC(=O)NCC(N)=O)C(C)C)C(C)C)[C@@H](C)CC)C(=O)O
B6: SEQ ID NO 82 (peptide)
peptide: H[Aib]EGS[αMeF]TSDV[αMeS]S[αMeF]LEGEK([γGlu-Palmitoyl])A[αMeK]E[αMeF]IA[αMeF]VV[αMeK]GG-NH2
modifications: N-terminus assumed
SMILES: CCCCCCCCCCCCCCCC(=O)N[C@@H](CCC(=O)NCCCC[C@H](NC(=O)[C@H](CCC(=O)O)NC(=O)CNC(=O)[C@H](CCC(=O)O)NC(=O)[C@H](CC(C)C)NC(=O)[C@](C)(Cc1ccccc1)NC(=O)[C@H](CO)NC(=O)[C@](C)(CO)NC(=O)[C@@H](NC(=O)[C@H](CC(=O)O)NC(=O)[C@H](CO)NC(=O)[C@@H](NC(=O)[C@](C)(Cc1ccccc1)NC(=O)[C@H](CO)NC(=O)CNC(=O)[C@H](CCC(=O)O)NC(=O)C(C)(C)NC(=O)[C@@H](N)Cc1c[nH]cn1)[C@@H](C)O)C(C)C)C(=O)N[C@@H](C)C(=O)N[C@@](C)(CCCCN)C(=O)N[C@@H](CCC(=O)O)C(=O)N[C@@](C)(Cc1ccccc1)C(=O)N[C@H](C(=O)N[C@@H](C)C(=O)N[C@@](C)(Cc1ccccc1)C(=O)N[C@H](C(=O)N[C@H](C(=O)N[C@@](C)(CCCCN)C(=O)NCC(=O)NCC(N)=O)C(C)C)C(C)C)[C@@H](C)CC)C(=O)O

Chain of glucagon receptor (GCGR) (P47871 26-477): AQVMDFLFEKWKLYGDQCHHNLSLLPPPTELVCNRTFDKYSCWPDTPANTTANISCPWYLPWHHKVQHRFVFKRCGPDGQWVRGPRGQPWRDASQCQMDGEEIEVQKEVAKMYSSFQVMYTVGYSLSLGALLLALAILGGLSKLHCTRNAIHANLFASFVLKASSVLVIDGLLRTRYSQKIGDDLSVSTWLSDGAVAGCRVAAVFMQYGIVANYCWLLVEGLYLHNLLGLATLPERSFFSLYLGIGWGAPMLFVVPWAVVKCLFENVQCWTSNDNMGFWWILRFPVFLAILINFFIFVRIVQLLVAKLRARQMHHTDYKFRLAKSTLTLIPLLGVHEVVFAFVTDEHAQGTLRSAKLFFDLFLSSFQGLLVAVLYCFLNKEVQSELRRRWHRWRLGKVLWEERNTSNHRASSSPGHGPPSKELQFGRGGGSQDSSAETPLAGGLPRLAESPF

One test deals with GLP-1 receptor (GLP-1R) (human, UniProt P43220 24-463). The test can be described thus: cell-based or functional assay.
Turning to B1, the “cAMP Mean pM GLP-1R” value amounted to 3.6 pM, the “cAMP Primary assay EC50 GLP-1R n1” value was 0.0032 nM and the “cAMP Primary assay EC50 GLP-1R n2” value came out at 0.004 nM.

As for B2, the “cAMP Mean pM GLP-1R” value was determined as 283 pM, the “cAMP Primary assay EC50 GLP-1R n1” value came out at 0.37 nM and the “cAMP Primary assay EC50 GLP-1R n2” value worked out at 0.2 nM.

Consider B3, for which the “cAMP Mean pM GLP-1R” value turned out to be 101 pM, the “cAMP Primary assay EC50 GLP-1R n1” value was determined as 0.066 nM and the “cAMP Primary assay EC50 GLP-1R n2” value stood at 0.14 nM.

Take B4: the “cAMP Mean pM GLP-1R” value turned out to be 1.5 pM, the “cAMP Primary assay EC50 GLP-1R n1” value was found to be 0.0013 nM and the “cAMP Primary assay EC50 GLP-1R n2” value is 0.0017 nM.

B5: the “cAMP Mean pM GLP-1R” value was found to be 8 pM, the “cAMP Primary assay EC50 GLP-1R n1” value worked out at 0.0078 nM and the “cAMP Primary assay EC50 GLP-1R n2” value was 0.0081 nM.

For the molecule B6, the “cAMP Mean pM GLP-1R” value came to 2.5 pM, the “cAMP Primary assay EC50 GLP-1R n1” value was 0.003 nM and the “cAMP Primary assay EC50 GLP-1R n2” value turned out to be 0.002 nM.

The next test concerns the target glucagon receptor (GCGR) (human, UniProt P47871 26-477). The test can be described thus: cell-based or functional assay.
B1: the “cAMP Primary assay EC50 Gluc-R” value worked out at 28 nM and the “cAMP Primary assay EC50 Gluc-R (2nd)” value stood at 28 nM.

As to B2, the “cAMP Primary assay EC50 Gluc-R” value amounted to 27 nM and the “cAMP Primary assay EC50 Gluc-R (2nd)” value is 27 nM.

Regarding B3, the “cAMP Primary assay EC50 Gluc-R” value worked out at 28 nM and the “cAMP Primary assay EC50 Gluc-R (2nd)” value was determined as 28 nM.

Turning to B4, the “cAMP Primary assay EC50 Gluc-R” value is 28 nM and the “cAMP Primary assay EC50 Gluc-R (2nd)” value is 28 nM.

For the molecule B5, the “cAMP Primary assay EC50 Gluc-R” value turned out to be 27 nM and the “cAMP Primary assay EC50 Gluc-R (2nd)” value amounted to 27 nM.

As for B6, the “cAMP Primary assay EC50 Gluc-R” value is 27 nM and the “cAMP Primary assay EC50 Gluc-R (2nd)” value amounted to 27 nM.

Another test addresses T1, glucose-dependent insulinotropic peptide (gastric inhibitory polypeptide) receptor (GIPR) (human, UniProt P48546 22-466).
T1 sequence (looked up): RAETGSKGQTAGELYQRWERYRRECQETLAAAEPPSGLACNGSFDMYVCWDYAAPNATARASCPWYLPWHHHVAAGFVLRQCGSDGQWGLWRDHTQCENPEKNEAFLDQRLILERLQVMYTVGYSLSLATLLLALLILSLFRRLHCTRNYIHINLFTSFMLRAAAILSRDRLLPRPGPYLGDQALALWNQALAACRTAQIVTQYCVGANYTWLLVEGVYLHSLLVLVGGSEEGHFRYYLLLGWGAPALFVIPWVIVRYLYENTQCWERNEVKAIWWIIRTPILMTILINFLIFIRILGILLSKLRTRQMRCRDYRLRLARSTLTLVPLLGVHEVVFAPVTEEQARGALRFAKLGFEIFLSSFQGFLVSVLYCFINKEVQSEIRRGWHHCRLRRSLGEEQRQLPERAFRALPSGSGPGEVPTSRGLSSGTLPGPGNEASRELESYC
Description: cell-based or functional assay.
As to B1, the “cAMP Primary assay EC50 GIP-R” value was 28 nM and the “cAMP Primary assay EC50 GIP-R (2nd)” value is 28 nM.

On to B2, for which the “cAMP Primary assay EC50 GIP-R” value came to 27 nM and the “cAMP Primary assay EC50 GIP-R (2nd)” value worked out at 27 nM.

Turning to B3, the “cAMP Primary assay EC50 GIP-R” value amounted to 28 nM and the “cAMP Primary assay EC50 GIP-R (2nd)” value came to 28 nM.

For B4, the “cAMP Primary assay EC50 GIP-R” value came to 28 nM and the “cAMP Primary assay EC50 GIP-R (2nd)” value came out at 28 nM.

Regarding B5, the “cAMP Primary assay EC50 GIP-R” value came out at 27 nM and the “cAMP Primary assay EC50 GIP-R (2nd)” value came out at 27 nM.

B6: the “cAMP Primary assay EC50 GIP-R” value was found to be 27 nM and the “cAMP Primary assay EC50 GIP-R (2nd)” value was 27 nM.
